This is an account of results in PMC6009650.

The target in experiment [1] is E. coli RNAP core enzyme carrying a hexahistidine-tagged β’ subunit (E. coli) (UniProt P0A8T7).
The target is the same in experiment [2]. This is another data set of the same source.

UniProt P0A8T7, sequence (P0A8T7 whole entry, looked up): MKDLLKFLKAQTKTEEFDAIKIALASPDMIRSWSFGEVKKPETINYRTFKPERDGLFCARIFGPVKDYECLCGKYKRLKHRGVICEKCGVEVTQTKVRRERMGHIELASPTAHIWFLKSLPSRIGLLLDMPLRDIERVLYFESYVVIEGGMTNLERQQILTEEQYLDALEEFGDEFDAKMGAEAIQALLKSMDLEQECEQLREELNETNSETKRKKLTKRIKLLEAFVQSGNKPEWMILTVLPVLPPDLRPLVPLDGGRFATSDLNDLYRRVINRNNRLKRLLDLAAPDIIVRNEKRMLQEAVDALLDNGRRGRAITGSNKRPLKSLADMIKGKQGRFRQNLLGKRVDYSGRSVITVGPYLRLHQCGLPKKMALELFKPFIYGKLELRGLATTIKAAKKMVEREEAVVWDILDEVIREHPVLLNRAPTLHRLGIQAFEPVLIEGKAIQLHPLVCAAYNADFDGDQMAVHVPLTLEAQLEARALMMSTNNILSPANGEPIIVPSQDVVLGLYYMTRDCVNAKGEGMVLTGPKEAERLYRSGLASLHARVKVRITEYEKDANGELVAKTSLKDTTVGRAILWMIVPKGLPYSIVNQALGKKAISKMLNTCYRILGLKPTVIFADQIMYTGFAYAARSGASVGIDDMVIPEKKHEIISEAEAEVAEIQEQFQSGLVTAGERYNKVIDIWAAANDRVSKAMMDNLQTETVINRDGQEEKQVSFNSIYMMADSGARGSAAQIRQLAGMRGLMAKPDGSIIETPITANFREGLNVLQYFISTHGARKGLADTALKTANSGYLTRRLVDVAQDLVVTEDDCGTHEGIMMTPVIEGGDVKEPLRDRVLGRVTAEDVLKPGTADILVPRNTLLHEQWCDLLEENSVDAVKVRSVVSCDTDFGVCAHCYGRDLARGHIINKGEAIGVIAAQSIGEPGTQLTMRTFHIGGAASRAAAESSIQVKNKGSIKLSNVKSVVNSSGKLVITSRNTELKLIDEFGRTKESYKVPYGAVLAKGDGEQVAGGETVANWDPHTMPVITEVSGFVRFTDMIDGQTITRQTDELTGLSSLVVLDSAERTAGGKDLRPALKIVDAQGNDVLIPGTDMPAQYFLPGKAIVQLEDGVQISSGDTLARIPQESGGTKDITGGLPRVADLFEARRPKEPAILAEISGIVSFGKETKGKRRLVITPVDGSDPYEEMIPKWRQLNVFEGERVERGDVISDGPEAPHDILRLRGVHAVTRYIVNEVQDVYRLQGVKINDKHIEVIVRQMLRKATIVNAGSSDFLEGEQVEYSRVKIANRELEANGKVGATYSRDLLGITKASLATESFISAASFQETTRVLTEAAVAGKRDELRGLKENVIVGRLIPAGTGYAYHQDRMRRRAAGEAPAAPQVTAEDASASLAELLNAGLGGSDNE

B1: Nun protein of HK022 phage (natural protein)
chain: VKKTIYVNPDSGQNRKVSDRGLTSRDRRRIARWEKRIAYALKNGVTPGFNAIDDGPEYKINEDPMDKVDKALATPFPRDVEKIEDEKYEDVMHRVVNHAHQRNPNKKWS
With B1, the apparent Vmax of pyrophosphorolysis of TEC U10 with 1 μM Nun (15.7 min^-1 without Nun); [PPi] 10 μM to 2.5 mM in experiment [1] worked out at 160 min⁻¹. In addition, in experiment [2], the apparent pyrophosphorolysis rate of TEC U10 after pre-incubation with 1 μM Nun (0.21 s^-1 without Nun); 2.5 mM PPi, 5 mM MgCl2 amounted to 2.4 s⁻¹.
